Common to all, as to test: cell-based or functional assay
For experiment [1], the target named is human glucagon receptor (human) (UniProt P47871).
Experiment [2] concerns the target T1, human GIP receptor (human) (UniProt P48546).
T1 sequence (looked up): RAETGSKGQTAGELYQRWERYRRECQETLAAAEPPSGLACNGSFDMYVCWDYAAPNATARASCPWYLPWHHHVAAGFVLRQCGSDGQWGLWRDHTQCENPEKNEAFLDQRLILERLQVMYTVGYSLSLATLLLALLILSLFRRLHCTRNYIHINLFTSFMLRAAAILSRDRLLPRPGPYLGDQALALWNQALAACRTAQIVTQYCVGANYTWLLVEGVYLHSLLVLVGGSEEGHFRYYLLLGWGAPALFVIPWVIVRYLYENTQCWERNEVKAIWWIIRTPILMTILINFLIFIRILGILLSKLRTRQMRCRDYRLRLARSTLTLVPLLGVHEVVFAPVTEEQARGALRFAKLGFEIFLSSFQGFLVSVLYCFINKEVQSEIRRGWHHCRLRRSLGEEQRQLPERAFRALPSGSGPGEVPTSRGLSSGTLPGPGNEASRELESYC

The target in experiment [3] is hGLP-1R (Homo sapiens, UniProt P43220).
In experiment [4] the target is human glucagon receptor (human, UniProt P47871 26-477).
Experiment [5] has as its target human GLP-1 receptor (human, UniProt P43220 24-463).
Experiment [6] concerns the target T2, human GIP receptor (human, UniProt P48546 22-466).
T2 sequence (looked up): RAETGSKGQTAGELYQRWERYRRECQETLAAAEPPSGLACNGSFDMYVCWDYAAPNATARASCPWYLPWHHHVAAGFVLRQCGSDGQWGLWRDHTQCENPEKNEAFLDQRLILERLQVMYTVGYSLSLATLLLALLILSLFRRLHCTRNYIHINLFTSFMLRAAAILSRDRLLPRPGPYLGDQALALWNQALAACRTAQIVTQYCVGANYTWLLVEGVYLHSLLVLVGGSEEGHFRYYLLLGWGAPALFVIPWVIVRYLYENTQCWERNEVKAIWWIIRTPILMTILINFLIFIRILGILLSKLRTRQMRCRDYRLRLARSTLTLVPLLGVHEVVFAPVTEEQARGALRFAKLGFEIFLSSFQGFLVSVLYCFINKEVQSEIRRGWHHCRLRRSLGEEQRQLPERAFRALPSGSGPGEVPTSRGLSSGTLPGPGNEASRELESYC

*1 amine or outer side, *2 acyl side, *3 side chain or, on linkers, in order; H or OH if unused. Where no end group is shown, it is not given here. Side-chain parts run from the residue outwards. [ ]: non-standard residue; d: D form. The star is where a group is joined. αMePhe(2-F) = C[C@](N)(Cc1ccccc1F)C(=O)O; γGlu = O=C(O)[C@H](CCC(=O)[*:2])N[*:1]; C14 diacid = O=C(O)CCCCCCCCCCCCC(=O)*; αMeY = C[C@](N)(Cc1ccc(O)cc1)C(=O)O; αMeL = CC(C)C[C@](C)(N)C(=O)O; Orn = NCCC[C@H](N)C(=O)O; AEEA = NCCOCCOCC(=O)O; Aib = CC(C)(N)C(=O)O

human glucagon receptor, sequence (P47871 26-477): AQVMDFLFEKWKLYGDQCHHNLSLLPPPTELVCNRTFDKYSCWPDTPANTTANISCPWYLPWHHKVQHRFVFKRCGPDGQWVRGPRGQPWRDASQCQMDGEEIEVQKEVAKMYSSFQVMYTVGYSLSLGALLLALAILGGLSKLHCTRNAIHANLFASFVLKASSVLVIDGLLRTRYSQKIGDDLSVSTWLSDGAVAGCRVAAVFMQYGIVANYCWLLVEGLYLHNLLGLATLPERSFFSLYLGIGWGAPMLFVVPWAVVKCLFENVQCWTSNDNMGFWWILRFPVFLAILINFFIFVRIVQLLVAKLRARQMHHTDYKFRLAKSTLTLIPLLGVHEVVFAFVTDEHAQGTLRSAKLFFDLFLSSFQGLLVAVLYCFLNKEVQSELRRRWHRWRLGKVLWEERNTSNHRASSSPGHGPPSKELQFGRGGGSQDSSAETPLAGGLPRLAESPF

B1: Example 396 (peptide)
peptide: YXEGTXTSDYXIXLDXKAQXEFIXXLIKGGPSSGAPPPS
modifications: Y-Aib-EGT-αMeF(2F)-TSDY-Aib-I-αMeL-LD-Orn-K((2-[2-(2-Amino-ethoxy)-ethoxy]-acetyl)2-(10-(4-carboxyphenoxy)decanoyl))AQ-Aib-EFI-(D-Glu)-αMeY-LIK((2-[2-(2-Amino-ethoxy)-ethoxy]-acetyl)2-(10-(4-carboxyphenoxy)decanoyl))GGPSSGAPPPS-NH2
Regarding B1, the cAMP EC50 in experiment [1] was greater than 9950 nM; in experiment [2], 0.0113 nM; in experiment [3], 0.291 nM. For the same molecule, the cAMP Emax in experiment [2] is 96.2%; in experiment [3], 107%. Also, the “cAMP EC50 (1.0% HSA)” value is greater than 9950 nM in experiment [4], 6.49 nM in experiment [5] and 0.595 nM in experiment [6]. The entries for the “cAMP Emax (1.0% HSA)” value in experiment [5] and in experiment [6] were 94.4% and 67.1%, respectively.

B2: Example 394 (peptide)
peptide: YXEGTXTSDVXIXLDXKAQXKFIXXLIEGGPSSGAPPPS
modifications: Y-Aib-EGT-αMeF(2F)-TSDV-Aib-I-αMeL-LD-Orn-K((2-[2-(2-Amino-ethoxy)-ethoxy]-acetyl)2-(10-(4-carboxyphenoxy)decanoyl))AQ-Aib-K((2-[2-(2-Amino-ethoxy)-ethoxy]-acetyl)2-(10-(4-carboxyphenoxy)decanoyl))FI-(D-Glu)-αMeY-LIEGGPSSGAPPPS-NH2
As for B2, the cAMP EC50 in experiment [1] is greater than 9950 nM; in experiment [2], 0.0179 nM; in experiment [3] it was 0.223 nM. Also, the figures for the cAMP Emax in experiment [2] and in experiment [3] were 97.7% and 101%, respectively. In addition, the “cAMP EC50 (1.0% HSA)” value in experiment [4] was greater than 9950 nM; in experiment [5] it was 5.83 nM; in experiment [6] it was 1.38 nM. Besides, the “cAMP Emax (1.0% HSA)” value in experiment [6] worked out at 84.6%.

B3: Example 398 (peptide)
peptide: YXEGTXTSDVXIXLDXKAQXKFIXXLIEGGPSSGAPPPS
modifications: Y-Aib-EGT-αMeF(2F)-TSDV-Aib-I-αMeL-LD-Orn-K((2-[2-(2-Amino-ethoxy)-ethoxy]-acetyl)-(γ-Glu)-CO-(CH2)12-CO2H)AQ-Aib-K((2-[2-(2-Amino-ethoxy)-ethoxy]-acetyl)-(γ-Glu)-CO-(CH2)12-CO2H)FI-(D-Glu)-αMeY-LIEGGPSSGAPPPS-NH2
Regarding B3, the figures for the cAMP EC50 in experiment [1], in experiment [2] and in experiment [3] were greater than 9950 nM, 0.0166 nM and 0.215 nM, respectively. Moreover, the cAMP Emax in experiment [2] was 97.4%; in experiment [3], 101%. For the same molecule, the “cAMP EC50 (1.0% HSA)” value was greater than 9950 nM in experiment [4], 41.3 nM in experiment [5] and 5.4 nM in experiment [6]. In experiment [6], the “cAMP Emax (1.0% HSA)” value turned out to be 91.9%.

B4: Example 404 (peptide)
peptide: YXEGTXTSDXXIXLDXKAQXKFIXXLIEGGPSSGAPPPS
modifications: Y-Aib-EGT-αMeF(2F)-TSD-4Pal-Aib-I-αMeL-LD-Orn-K(PEG3-(γ-Glu)-CO-(CH2)12-CO2H)AQ-Aib-K(PEG3-(γ-Glu)-CO-(CH2)12-CO2H)FI-(D-Glu)-αMeY-LIEGGPSSGAPPPS-NH2
Take B4: the cAMP EC50 was greater than 9950 nM in experiment [1], 0.014 nM in experiment [2] and 0.632 nM in experiment [3]. Besides, the values for the cAMP Emax in experiment [2] and in experiment [3] were 101% and 94.3%, respectively. Moreover, the “cAMP EC50 (1.0% HSA)” value in experiment [4] is greater than 9950 nM; in experiment [5], 49.1 nM; in experiment [6], 1.74 nM.

Y[Aib]EGT[αMePhe(2-F)]TSDV[Aib]I[αMeL]LD[Orn]K([AEEA-AEEA-C14 diacid])AQ[Aib]EFI[dE][αMeY]LIK([AEEA-AEEA-C14 diacid])GGPSSGAPPPS-NH2 [Example 389]: the cAMP EC50 in experiment [1] is greater than 9950 nM; in experiment [2] it was 0.0178 nM; in experiment [3], 0.19 nM. Further, the cAMP Emax in experiment [2] was found to be 94.6%; in experiment [3] it was 92.4%. In addition, the results for the “cAMP EC50 (1.0% HSA)” value in experiment [4], in experiment [5] and in experiment [6] were greater than 9950 nM, 9.58 nM and 1.5 nM, respectively. The “cAMP Emax (1.0% HSA)” value in experiment [6] came to 82%.

B5: Example 399 (peptide)
peptide: Y[Aib]EGT[αMePhe(2-F)]TSDV[Aib]I[αMeL]LD[Orn]K([AEEA-γGlu-C14 diacid])AQ[Aib]EFI[dE][αMeY]LIK([AEEA-γGlu-C14 diacid])GGPSSGAPPPS-NH2
modifications: N-terminus assumed
SMILES: CC[C@H](C)[C@H](NC(=O)[C@H](CC(C)C)NC(=O)[C@](C)(Cc1ccc(O)cc1)NC(=O)[C@@H](CCC(=O)O)NC(=O)[C@@H](NC(=O)[C@H](Cc1ccccc1)NC(=O)[C@H](CCC(=O)O)NC(=O)C(C)(C)NC(=O)[C@H](CCC(N)=O)NC(=O)[C@H](C)NC(=O)[C@H](CCCCNC(=O)COCCOCCNC(=O)CC[C@H](NC(=O)CCCCCCCCCCCCC(=O)O)C(=O)O)NC(=O)[C@H](CCCN)NC(=O)[C@H](CC(=O)O)NC(=O)[C@H](CC(C)C)NC(=O)[C@](C)(CC(C)C)NC(=O)[C@@H](NC(=O)C(C)(C)NC(=O)[C@@H](NC(=O)[C@H](CC(=O)O)NC(=O)[C@H](CO)NC(=O)[C@@H](NC(=O)[C@](C)(Cc1ccccc1F)NC(=O)[C@@H](NC(=O)CNC(=O)[C@H](CCC(=O)O)NC(=O)C(C)(C)NC(=O)[C@@H](N)Cc1ccc(O)cc1)[C@@H](C)O)[C@@H](C)O)C(C)C)[C@@H](C)CC)[C@@H](C)CC)C(=O)N[C@@H](CCCCNC(=O)COCCOCCNC(=O)CC[C@H](NC(=O)CCCCCCCCCCCCC(=O)O)C(=O)O)C(=O)NCC(=O)NCC(=O)N1CCC[C@H]1C(=O)N[C@@H](CO)C(=O)N[C@@H](CO)C(=O)NCC(=O)N[C@@H](C)C(=O)N1CCC[C@H]1C(=O)N1CCC[C@H]1C(=O)N1CCC[C@H]1C(=O)N[C@@H](CO)C(N)=O
As to B5, the cAMP EC50 was greater than 9950 nM in experiment [1], 0.0186 nM in experiment [2] and 0.259 nM in experiment [3]. Moreover, the figures for the cAMP Emax in experiment [2] and in experiment [3] were 98.4% and 91.9%, respectively. Moreover, the “cAMP EC50 (1.0% HSA)” value was greater than 9950 nM in experiment [4], 43.6 nM in experiment [5] and 16.2 nM in experiment [6]. In addition, the “cAMP Emax (1.0% HSA)” value was 89.7% in experiment [5] and 86.8% in experiment [6].

The values are drawn from patent US20230265151A1, “GIP/GLP1 CO-AGONIST COMPOUNDS” (priority 2020, published 2023).
